According to patent US8575303:

How the values were obtained:
[1] = biological target: unlabeled anti-CD4 (RPA-T4 clone, BD Biosciences) raised in mouse against the human antigen; assay: flow cytometry on Cyto-trol cells pre-labeled with mouse anti-CD4 primary (Example 36, FIG. 20B)
Mouse IgG [2] = assay: Luminex xMap bead sandwich assay, mouse IgG titration, detection with streptavidin-conjugated polymer
Mouse IgG [3] = assay: Luminex xMap bead sandwich assay, mouse IgG titration, detection with streptavidin-phycoerythrin at 4 ug/mL

stain index, fold over a Pacific Blue control conjugate of the same antibody [1]	MFI/zero (fluorescence highest point in standard curve/fluorescence zero concentration of analyte) (Mouse IgG [2])	MFI/zero (fluorescence highest point in standard curve/fluorescence zero concentration of analyte) (Mouse IgG [3])	Substance
> 4 fold	–	–	405 polymer-goat anti-mouse conjugate (amine-functionalized 405 polymer conjugated to goat anti-mouse IgG purified antibody)
–	26.6	21.8	Donkey anti-mouse IgG antibody covalently conjugated to xMap beads
